These results are taken from patent publication US20210355235A1, “Compositions and Methods For Treating Cancer with Anti-Renalase antibodies and Anti-PD1 antibodies” (YALE UNIVERSITY, priority 2017, published 2021).

To fix the notation:
B1: 3A-5-2: anti-renalase monoclonal specific for renalase-2; heavy chain SEQ ID NO:41, light chain SEQ ID NO:42 (antibody)
heavy: METGLRWLLLVAVLKGVQCQSLEESGGRLVTPGTPLTLTCTVSGFSLNNYHIYWVRQAPGKGLEYIGIIFNGGTYYARWTKGRFTISKTSTTVDLKMTSLTTEDTATYFCARGDGIWGPGTLVTVSLGQPKAPSVFPLAPCCGDTPSSTVTLGCLVKGYLPEPVTVTWNSGTLTNGVRTFPSVRQSSGLYSLSSVVSVTSSSQPVTCNVAHPATNTKVDKTVAPSTCSKPTCPPPELLGGPSVFIFPPKPKDTLMISRTPEVTCVVVDVSQDDPEVQFTWYINNEQVRTARPPLREQQFNSTIRVVSTLPIAHQDWLRGKEFKCKVHNKALPAPIEKTISKARGQPLEPKVYTMGPPREELSSRSVSLTCMINGFYPSDISVEWEKNGKAEDNYKTTPAVLDSDGSYFLYSKLSVPTSEWQRGDVFTCSVMHEALHNHYTQKSISRSPGK
light: MDTRAPTQLLGLLLLWLPGATFAQVLTQTPASVSAAVGGTVTINCQASQSVFNNNYLAWYQQKPGQPPKRLIYSASTLASGVSSRFKGSGSGTEFTLTMSGVECDDAATYYCAGSFDCNSGDCVAFGGGTEVVVKGDPVAPTVLIFPPAADQVATGTVTIVCVANKYFPDVTVTWEVDGTTQTTGIENSKTPQNSADCTYNLSSTLTLTSTQYNSHKEYTCKVTQGTTSVVQSFNRGDC
modifications: 3A-5-2 full length heavy chain amino acid; 3A-5-2 full length light chain amino acid
B2: 1F-26-1: anti-renalase monoclonal specific for renalase-1; heavy chain SEQ ID NO:25, light chain SEQ ID NO:26 (antibody)
heavy: METGLRWLLLVAVLKGVQCQSVKESEGGLFKPTDTLTLTCTVSGFSLSSYGVTWVRQAPGNGLEWIGLIGDRGTTFYASWAKSRSTITRNTNLNTVTLKMTRLTAADTATYFCARGSGYGARIWGPGTLVTVSSWQPKAPSVFPLAPCCGDTPSSTVTLGCLVKGYLPEPVTVTWNSGTLTNGVRTFPSVRQSSGLYSLSSVVSVTSSSQPVTCNVAHPATNTKVDKTVAPSTCSKPTCPPPELLGGPSVFIFPPKPKDTLMISRTPEVTCVVVDVSQDDPEVQFTWYINNEQVRTARPPLREQQFNSTIRVVSTLPIAHQDWLRGKEFKCKVHNKALPAPIEKTISKARGQPLEPKVYTMGPPREELSSRSVSLTCMINGFYPSDISVEWEKNGKAEDNYKTTPAVLDSDGSYFLYSKLSVPTSEWQRGDVFTCSVMHEALHNHYTQKSISRSPGK
light: MDTRAPTQLLGLLLLWLPGATFAQVLTQTPSPVSAAVGGTVTINCQSSQSVYKNNYLAWYQQKPGQPPKLLIYETSKLASGVPPRFSGSGSGTQFTLTISSVQCDDAATYYCQGGYSGVDFMAFGGGTEVVVKGDPVAPTVLIFPPSADLVATGTVTIVCVANKYFPDVTVTWEVDGTTQTTGIENSKTPQNSADCTYNLSSTLTLTSTQYNSHKEYTCKVTQGTTSVVQSFNRGDC
modifications: 1F-26-1 full length heavy chain amino acid; 1F-26-1 full length light chain amino acid
B3: 1F-42-7: anti-renalase monoclonal specific for renalase-1; heavy chain SEQ ID NO:33, light chain SEQ ID NO:34 (antibody)
heavy: METGLRWLLLVAVLKGVQCQSVKESEGGLFKPTDTLTLTCTVSGFSLTTYGVTWVRQAPGNGLEWIGLIGDRGTTYYASWVNGRSTITRNTNLNTVTLKMTRLTAADTATYFCARGSGYGARIWGPGTLVTVASWQPKAPSVFPLAPCCGDTPSSTVTLGCLVKGYLPEPVTVTWNSGTLTNGVRTFPSVRQSSGLYSLSSVVSVTSSSQPVTCNVAHPATNTKVDKTVAPSTCSKPTCPPPELLGGPSVFIFPPKPKDTLMISRTPEVTCVVVDVSQDDPEVQFTWYINNEQVRTARPPLREQQFNSTIRVVSTLPIAHQDWLRGKEFKCKVHNKALPAPIEKTISKARGQPLEPKVYTMGPPREELSSRSVSLTCMINGFYPSDISVEWEKNGKAEDNYKTTPAVLDSDGSYFLYSKLSVPTSEWQRGDVFTCSVMHEALHNHYTQKSISRSPGK
light: MDTRAPTQLLGLLLLWLPGATFAQVLTQTPSPMSAALGGTVTINCQSSQTVYNNNYLSWYQQKPGQPPKLLIYETSKLSSGVPPRFSGSGSGTQFTLTISSVQCDDAATYYCQGGYSGVDFMAFGGGTEVVVKGDPVAPTVLIFPPSADLVATGTVTIVCVANKYFPDVTVTWEVDGTTQTTGIENSKTPQNSADCTYNLSSTLTLTSTQYNSHKEYTCKVTQGTTSVVQSFNRGDC
modifications: 1F-42-7 full length heavy chain amino acid; 1F-42-7 full length light chain amino acid

The test system of this test is renalase-1 and renalase-2. In words: renalase isoform specificity of the antibodies (ELISA / hybridoma screening). The format is binding, human. The conditions noted are these: renalase-1 vs renalase-2. The method, then:
Peptides were used as immunogens. The peptides generated ranged from 9 to 21 amino acids and corresponded to regions of the renalase-1 and renalase-2 proteins. […] Each peptide was conjugated to the adjuvant KLH via the cysteine and used to immunize 6 rabbits. Antiserum collected from each animal was screened for anti-renalase antibody titer by ELISA assay using both the relevant peptide (BSA-conjugate) or full length renalase-1 or 2. The antisera were also tested for their ability to detect endogenous renalase in tissue lysates by western blot. Using these screening criteria the animals producing antibodies with the preferred characteristics were selected. In some examples and for some peptides, several animals produced antibodies with the required specificity. […] Polyclonal antibodies raised against all of the peptides were generated by purification of total IgG from terminal bleeds by protein G chromatography followed by further purification on peptide affinity chromatography. Further and using standard procedures, lymphocytes from the spleens of selected animals were fused to myeloma cells for hybridoma generation. The hybridoma supernatants were screened for binding to both the peptides against which they were raised and secondarily screened against whole renalase protein. Selected hybridomas were sub-cloned and expanded for antibody purification. The monoclonal antibodies were purified from conditioned hybridoma culture supernatant by protein A affinity chromatography.
On the technique in general: An ELISA detects its analyte on a solid surface through an enzyme-linked reagent.
Consider B1, for which the renalase-type specificity result is reported as “specific for renalase-2”. For the molecule B2, the renalase-type specificity entry was “specific for renalase-1”. On to B3, for which the renalase-type specificity result was “specific for renalase-1”.
